Measured values published in patent publication US20240158537A1.

Target: IL-7 receptor (IL-7R), heterodimer of IL-7R alpha (CD127) and common gamma chain (CD132), on primary human T cells (human) (UniProt P16871)
Test: cell-based or functional assay

IL-7 receptor (IL-7R), heterodimer of IL-7R alpha (CD127) and common gamma chain (CD132), on primary human T cells (human), sequence (P16871 21-459, chain 1 of 2): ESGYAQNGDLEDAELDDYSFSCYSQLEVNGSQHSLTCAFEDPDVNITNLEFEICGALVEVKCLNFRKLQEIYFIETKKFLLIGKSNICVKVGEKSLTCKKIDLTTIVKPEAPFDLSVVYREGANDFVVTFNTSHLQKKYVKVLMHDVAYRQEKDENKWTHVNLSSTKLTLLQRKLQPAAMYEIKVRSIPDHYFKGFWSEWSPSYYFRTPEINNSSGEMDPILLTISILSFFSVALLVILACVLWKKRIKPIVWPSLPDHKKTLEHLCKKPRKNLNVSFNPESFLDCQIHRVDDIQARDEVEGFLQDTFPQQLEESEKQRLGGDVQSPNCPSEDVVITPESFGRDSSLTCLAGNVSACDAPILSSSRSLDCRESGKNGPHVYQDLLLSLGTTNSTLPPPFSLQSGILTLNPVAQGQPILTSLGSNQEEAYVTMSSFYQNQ
IL-7 receptor (IL-7R), heterodimer of IL-7R alpha (CD127) and common gamma chain (CD132), on primary human T cells (human), sequence (P31785 23-369, chain 2 of 2, further chain): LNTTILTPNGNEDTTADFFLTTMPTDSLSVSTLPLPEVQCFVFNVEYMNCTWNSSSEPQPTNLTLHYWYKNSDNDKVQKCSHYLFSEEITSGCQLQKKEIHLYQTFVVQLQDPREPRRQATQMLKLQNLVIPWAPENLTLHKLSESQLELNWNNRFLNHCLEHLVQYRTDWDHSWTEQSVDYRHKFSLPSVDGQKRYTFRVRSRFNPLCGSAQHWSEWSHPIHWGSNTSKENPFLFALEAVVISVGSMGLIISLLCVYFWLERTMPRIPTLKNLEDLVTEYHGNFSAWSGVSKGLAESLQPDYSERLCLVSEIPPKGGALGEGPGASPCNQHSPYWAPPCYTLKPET

An Avg EC50 (nM) (human pSTAT5), CD4 Memory of 0.005 nM, an Avg EC50 (nM) (human pSTAT5), CD4 Naive of 0.005 nM and an Avg EC50 (nM) (human pSTAT5), CD4 Treg of 0.015 nM were found for “Synthetic IL-7 of SEQ ID NO: 3 (M17Nle, M27Nle, N36Hse, M54Nle, M69Nle, D76Hse, E114Hse, M147Nle) (from UniProt P13232 26-177) (ligand)” in this work. The Avg EC50 (nM) (human pSTAT5), CD8 Memory was 0.006 nM and the Avg EC50 (nM) (human pSTAT5), CD8 Naive was 0.006 nM.
